According to patent publication US20150216948A1, “CYTOCHROME P450 SUICIDE GENE SYSTEM” (priority 2012, published 2015):
Like-named read-outs stand apart in the source and are kept apart here.

B1: r-P422: wildtype rabbit CYP4B1 enzyme (protein, listed as Oryctolagus cuniculus)
chain: MLGFLSRLGLWASGLILILGFLKLLRLLLRRQRLARAMDSFPGPPTHWLFGHALEIQKTGSLDKVVTWTQQFPYAHPLWVGQFIGFLNIYEPDYAKAVYSRGDPKAPDVYDFFLQWIGKGLLVLDGPKWFQHRKLLTPGFHYDVLKPYVAIFADSTRIMLEKWEKKACEGKSFDIFSDVGHMALDTLMKCTFGKGDSGLNHRDSSYYVAVSELTLLMQQRIDSFQYHNDFIYWLTPHGRRFLRACRAAHDHTDRVIRQRKAALQDEKEREKIQNRRHLDFLDILLDVRGESGVQLSDTDLRAEVDTFMFEGHDTTTSGISWFLYCMALYPEHQQRCREEVREILGDQDSFQWEDLAKMTYLTMCMKECFRLYPPVPQVYRQLSKPVSFVDGRSLPAGSLISLHIYALHRNSDVWPDPEVFDPLRFSPENSSGRHPYAFIPFSAGPRNCIGQQFAMNEMKVVTALCLLRFEFSVDPLRLPIKLPQLVLRSKNGIHLYLKPLGPK
B2: h-S427: native human CYP4B1 protein with serine at position 427 (protein, listed as Homo sapiens)
chain: MVPSFLSLSFSSLGLWASGLILVLGFLKLIHLLLRRQTLAKAMDKFPGPPTHWLFGHALEIQETGSLDKVVSWAHQFPYAHPLWFGQFIGFLNIYEPDYAKAVYSRGDPKAPDVYDFFLQWIGRGLLVLEGPKWLQHRKLLTPGFHYDVLKPYVAVFTESTRIMLDKWEEKAREGKSFDIFCDVGHMALNTLMKCTFGRGDTGLGHRDSSYYLAVSDLTLLMQQRLVSFQYHNDFIYWLTPHGRRFLRACQVAHDHTDQVIRERKAALQDEKVRKKIQNRRHLDFLDILLGARDEDDIKLSDADLRAEVDTFMFEGHDTTTSGISWFLYCMALYPEHQHRCREEVREILGDQDFFQWDDLGKMTYLTMCIKESFRLYPPVPQVYRQLSKPVTFVDGRSLPAGSLISMHIYALHRNSAVWPDPEVFDSLRFSTENASKRHPFAFMPFSAGPRNCIGQQFAMSEMKVVTAMCLLRFEFSLDPSRLPIKMPQLVLRSKNGFHLHLKPLGPGSGK

Columns and labels:
[1] = tested on: HepG2 cells; assay: 4-IPO toxicity assay: survival of transduced HepG2 cells by flow cytometry (propidium iodine); type: cell-based, human; conditions: for 4-IPO processing activity / cell killing (in words): transduced cells challenged with 4-IPO
From the text: Initially, the serine at position 427 in the human CYP4B1 was mutated back to proline (h-P427), which is present at this position in all CYP4B1 proteins. Additionally a proline to serine exchange was created in the native rabbit CYP4B1 enzyme at the corresponding position 422 (r-P422). To immediately exclude the possibility that the different activities between human and the rabbit protein isoforms are simply due to differences in mRNA stability, the human CYP4B1 cDNA (SEQ ID NO.: 2) was optimized for human-codon usage (SEQ ID NO.: 3) by de novo synthesis with silent mutagenesis of the cDNA, thus removing internal TATA-boxes, instability motives, RNA secondary structures and (cryptic) splice donor/acceptor sites and ensuring an average GC content of around 60%. All cDNAs were cloned into the same lentiviral (LV) HIV1-based expression vector and LV supernatants produced by plasmid transfection in HEK293T cells. Subsequently, the two rabbit and the four human cDNAs were stably expressed in the human liver cell line HepG2. Stably expressing transduced cells were challenged after five days with increasing concentrations of 4-IPO for 24, 48 and 72 hours and then the survival of cells analyzed by flow cytometry using propidium iodine for live/dead cell discrimination.
(§1) Next, it was analyzed whether the different activities of the human and the rabbit proteins in processing 4-IPO could be explained by differences in protein half-life. However, as no antibody was available that can detect both CYP4B1 proteins, EGFP fusion constructs were generated. With these constructs, EGFP antibodies can be utilized to visualize and compare the expression levels and the half-lives of the fusion proteins in cells by western blots. EGFP expression can also be used for flow cytometry assessment of the expression levels due to the fluorescent properties of the fusion proteins. 5′- and 3′-fusions of EGFP with the native rabbit P422 and the human P427 CYP4B1 proteins were cloned in LV vectors with an IRES-NEO (NEO=neomycin phosphotransferase cDNA, npt II) and stably expressed in HepG2 cells (FIG. 3 B). For comparison, the corresponding IRES-EGFP constructs were also included, as these vectors had already been used in previous experiments and activity measurements thus already existed. Transduced cells were incubated for 24, 48 and 72 hours with increasing concentration of 4-IPO. Cultures were then harvested, cells stained with propidium iodine and subsequently analyzed for survival of transduced EGFP+ cells by flow cytometry (FIG. 3 A).

[2] = tested on: HepG2 cells; assay: Half-life of CYP4B1/EGFP fusion proteins after cycloheximide (western blot, FACS); type: cell-based, human; conditions: EGFP fusion
Protocol: FIGS. 3 C and D show CYP4B1 stability as analysed by western blotting and by flow cytometry. The studies on protein expression and stability were performed with the rabbit and human CYP4B1/EGFP fusion construction in the lentiviral vector with the additional IRES-neomycin cassette. Half-life analysis was performed by adding 50 μg/ml cycloheximide to the transduced and G418-selected HepG2 cells. Samples were collected at the indicated time points.
as §1
After standard inhibition of de novo protein synthesis by cycloheximide, the half-life of the CYP4B1 proteins in stably transduced and G418-resistant HepG2 cells was assessed by determining the protein expression levels over time either in western blotting or in FACS analysis as EGFP fluorescence. […] For the human native protein (h-S427), the mean fluorescence indicates a short average half-life of only 6 hours.

[3] = tested on: primary human T-cells; assay: 4-IPO toxicity in transduced primary T-cells; type: cell-based; conditions: 24 h and 72 h exposure to increasing doses of 4-IPO, EGFP fusions, FIG. 7 B
From the text: Compared to the HepG2 liver cells, primary T-cells might not provide an optimal environment for the function of P450 cytochromes (although the necessary reductase is ubiquitously expressed) and the infection of primary T-cells is considerably more complex.
The T cells were isolated by Ficoll and stimulated with CD3, CD28 and IL2 for 3 days before they were infected with lentiviral vectors using fibronectin. For optimal toxicity in T cells, the suicide genes were not expressed as EGFP fusions proteins but a IRES-EGFP-WPRO vector construct was used. […] However, after 24 hours over 70% of the transgenic T cells were eliminated by CYP4B1 P427 mut12. […] The determination of the virus titer was based on the titration of the reference cell line HT1080.

[4] = relative to rabbit CYP4B1, cited from earlier work

Molecule | transduced HepG2 cells eliminated / dead ([1]; after 24 hours of 4-IPO treatment, FIG. 2) | protein stability (in words) ([2]; cycloheximide, HepG2 cells) | killing of primary T-cells with 4-IPO (in words) [3] | 4-IPO processing activity / cell killing (in words) ([1]; listed as native CYP4B1 protein) | 4-IPO processing activity / cell killing (in words) ([1]; listed as native human CYP4B1 S427 protein) | protein half-life ([2]; 50 μg/ml cycloheximide, G418-selected HepG2 cells) [h] | activity to activate 4-IPO compared to the rabbit CYP4B1 [4] [%] | activity to activate 4-IPO compared to the rabbit CYP4B1 ([4]; listed as human isoform) [%]
B1 | over 95% | strongest protein stability | more active than the native P427 and the human codon-optimized P427 CYP4B1 enzymes | – | – | – | – | –
B2 | – | – | – | comparable to the survival rate of non-transduced control cells | cannot process 4-IPO at all | 6 | > 1 | ≤ 1
